# ± gives the standard deviation of the averaged measurements.
# Tested on: Saccharomyces cerevisiae
# Experiment: protein stability index of tFT-peptide fusion (C-terminal peptide) (PSI (0-1 scale)); higher = more stable (slower turnover)
# Conditions: genetic background: wild type; temperature: 30 C
# 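Also: PSI is a weighted mean of sequencing reads over stability bins, variants kept only with over 10 reads, mCherry proximal and sfGFP distal, peptide attached via GGGS linker.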
row,Sequence,protein stability index
1,VYHFPDLFPLGI,0.7078 ± 0.0027
2,VYKLDLEEENRS,0.654 ± 0.072
3,WAAWYPGEHPVP,0.755 ± 0.12
4,WAIPSSPQYKRA,0.676 ± 0.031
5,WARVESFTSKTQ,0.6028 ± 0.0045
6,WCLGLGCVWGGW,0.779 ± 0.092
7,WCRGVGSWRGRG,0.688 ± 0.008
8,WCVEGVWRVRGW,0.649 ± 0.044
9,WDFLLQGISSPR,0.767 ± 0.12
10,WDGWPTRWGGTG,0.705 ± 0.017
11,WEGAGGGFGLVV,0.712 ± 0.05
12,WELPNRANDLSH,0.769 ± 0.11
13,WENKKRMIRQKL,0.526 ± 0.016
14,WERGKGGLVMEG,0.646 ± 0.0067
15,WEWLQAKCFLSQ,0.688 ± 0.086
16,WFDVVALPCLSF,0.562 ± 0.0084
17,WFFSNLRRDCGG,0.735 ± 0.016
18,WFHPAPLCGPQS,0.662 ± 0.063
19,WFLCWGWGCGGA,0.673 ± 0.08
20,WFRPLSMLPPGF,0.701 ± 0.02
21,WGCFPGVVMGVS,0.594 ± 0.02
22,WGDDRIRVCVRG,0.611 ± 0.035
23,WGFWLCSGNWST,0.725 ± 0.0088
24,WGGGGGGGAAGS,0.679 ± 0.08
25,WGGGRGLRVVGG,0.733 ± 0.092

row,Sequence,protein stability index
1,WGGWGRVWVKLG,0.701 ± 0.05
2,WGIVGLRGSRVG,0.618 ± 0.018
3,WGMVFQVFRRRN,0.582 ± 0.018
4,WGPGGRRGVGHV,0.727 ± 0.058
5,WGQCLYRSAGSV,0.715 ± 0.055
6,WGRCGAVGRGGA,0.693 ± 0.029
7,WGRGAVGPLLGV,0.632 ± 0.016
8,WGRLRFFDCSGF,0.605 ± 0.014
9,WGRRGRRGSWGA,0.683 ± 0.024
10,WGRRNFLPNSPR,0.67 ± 0.049
11,WGSLVRLFGLWR,0.6541 ± 0.0015
12,WGVWYGGAVRVG,0.5 ± 0.052
13,WIPSYMRFCALT,0.788 ± 0.098
14,WIRRWVGVEGPL,0.707 ± 0.079
15,WKNGYITGHRYM,0.66596 ± 0.00041
16,WLGSRGNGGWAE,0.696 ± 0.024
17,WLPSSLPPIVHH,0.662 ± 0.018
18,WMCILESWDSVD,0.706 ± 0.099
19,WPFMGLSAGCLR,0.691 ± 0.028
20,WPLKTMLFGIWV,0.562 ± 0.028
21,WPSMFFSIEESW,0.887 ± 0.042
22,WPTPRVGIDLEN,0.631 ± 0.05
23,WQMRNGTSRSSL,0.631 ± 0.012
24,WREAVMKRQGGG,0.677 ± 0.014
25,WREGKTCTRKGG,0.57 ± 0.047

row,Sequence,protein stability index
1,WRGQRGRIAGPR,0.6694 ± 0.0062
2,WRLGEREGWKAG,0.615 ± 0.0077
3,WRSGGGGGPAGV,0.6762 ± 0.0032
4,WRTRRVVFPNWH,0.666 ± 0.008
5,WSFQTRSVNICI,0.633 ± 0.021
6,WSLSSHCMLMVE,0.5394 ± 0.0051
7,WSPILEHAISDL,0.731 ± 0.017
8,WSPPRAAPRPHP,0.642 ± 0.045
9,WSRSEIGDGSAG,0.742 ± 0.023
10,WSSGDVRRAKEW,0.719 ± 0.078
11,WSVAVVWDALFG,0.699 ± 0.04
12,WTFVRTPERSEI,0.719 ± 0.0089
13,WTIVEALPRGVV,0.679 ± 0.046
14,WTTWAYFSDPTS,0.621 ± 0.021
15,WVGCALEQGGAV,0.71 ± 0.0019
16,WVGPGGAVENKV,0.7013 ± 0.0032
17,WVKTLEKEDHVI,0.759 ± 0.21
18,WVPLGVVGWFGG,0.659 ± 0.038
19,WVRDDEYTLIFL,0.712 ± 0.035
20,WVTGASRLVGRE,0.766 ± 0.13
21,WVWAIDYEGLLW,0.699 ± 0.054
22,WVWGVLGAVWFG,0.632 ± 0.0091
23,WYTPDCLHCGPA,0.688 ± 0.013
24,YAAGGPLLLCNQ,0.66 ± 0.021
25,YAGGLWEGYRHW,0.636 ± 0.063

row,Sequence,protein stability index
1,YCALVSVGVVGG,0.542 ± 0.0036
2,YCFRFGLLIFGD,0.548 ± 0.01
3,YCGGRGGGWEIG,0.682 ± 0.027
4,YCNLSFKINREW,0.696 ± 0.12
5,YCRQVSYERPTK,0.743 ± 0.077
6,YEACQTGASICR,0.7125 ± 0.0013
7,YEGARAPAGGEK,0.689 ± 0.034
8,YERKGRQVGGRT,0.592 ± 0.048
9,YFAASFMSSSGI,0.76 ± 0.078
10,YFALPPSAHRHQ,0.693 ± 0.059
11,YFPSSTLPPPVP,0.675 ± 0.029
12,YFTARLLFFGYI,0.725 ± 0.1
13,YGGFLHALAMGG,0.677 ± 0.0014
14,YGLAGFLWGCGE,0.799 ± 0.051
15,YGRRPGSRGDEH,0.699 ± 0.025
16,YGSRWRPYLGFR,0.669 ± 0.028
17,YGTLCPLNGCGI,0.633 ± 0.068
18,YGWGVWFIGLGG,0.794 ± 0.095
19,YIDLVEGECNKK,0.685 ± 0.046
20,YILSSFWTEVDS,0.703 ± 0.093
21,YKTCKEKKITNR,0.704 ± 0.014
22,YLCRLHLGGLSS,0.602 ± 0.0075
23,YLEDRGTSGSVQ,0.676 ± 0.054
24,YLSRIFPSLLFL,0.6 ± 0.03
25,YLSSTVVRSMLF,0.644 ± 0.014

row,Sequence,protein stability index
1,YLVHEIGDMTYM,0.739 ± 0.079
2,YLVSYLSLFLSF,0.504 ± 0.029
3,YNGNSHQTHRHP,0.74 ± 0.022
4,YNGVGGLKPEPC,0.658 ± 0.049
5,YPKGKHSQDSHV,0.656 ± 0.039
6,YPLLPSERDVKA,0.728 ± 0.023
7,YPPPPPSPPSTV,0.722 ± 0.027
8,YPRNPSLSTSAS,0.63 ± 0.16
9,YPRPLSLSFLSL,0.73 ± 0.048
10,YPVLFLRSAPCK,0.584 ± 0.031
11,YQCESDLFLVGV,0.642 ± 0.041
12,YQCGRRVGSACD,0.645 ± 0.023
13,YQCVQNNKGRSR,0.67 ± 0.024
14,YQLRRGDSSLTE,0.677 ± 0.085
15,YRDTVYKVRYSN,0.537 ± 0.015
16,YRERSTIKITGN,0.671 ± 0.054
17,YRGNLVTDGYGA,0.685 ± 0.019
18,YRPFQAPPLVLF,0.6379 ± 0.0026
19,YRPGGDRMTGFV,0.713 ± 0.065
20,YRRGLGEYRTRS,0.688 ± 0.059
21,YRSEEFSGESGW,0.769 ± 0.11
22,YRTPRSRHLDSP,0.6938 ± 0.0068
23,YRVGCCCFFALT,0.618 ± 0.016
24,YRVSWSFLGCFQ,0.62 ± 0.071
25,YSDFLICGIGSY,0.775 ± 0.037

row,Sequence,protein stability index
1,YSDHFFQICGSF,0.726 ± 0.0065
2,YSGNPGVRGFHG,0.69 ± 0.073
3,YSGSKGVWTRWS,0.687 ± 0.02
4,YSGSYIEPREIR,0.626 ± 0.087
5,YSSGILPLEMIA,0.606 ± 0.0092
6,YSTFPPRIPRPP,0.524 ± 0.011
7,YTESQVCLLSAY,0.509 ± 0.0088
8,YTPALFLPVRPA,0.715 ± 0.06
9,YTQVSSRGINID,0.734 ± 0.029
10,YTRILRKKLINK,0.711 ± 0.11
11,YTSRLGRGILHV,0.671 ± 0.031
12,YVEGSWSSPRCR,0.675 ± 0.12
13,YVKEEEKKKESK,0.681 ± 0.079
14,YVRLSTLCGSAY,0.58 ± 0.036
15,YVSNKMHGSLLS,0.691 ± 0.03
16,YVTITLGLASPT,0.666 ± 0.026
17,YVVPLGIPPFKD,0.6591 ± 0.00099
18,YVWCINSARLVG,0.587 ± 0.01
19,YWSRIFEAATIA,0.5436 ± 0.0024
20,YWSTNGRCLMVL,0.581 ± 0.017
21,YYAMGFEKSISS,0.682 ± 0.031
22,YYDWPGQRFSEE,0.67 ± 0.035
23,YYRKATFSPMVQ,0.684 ± 0.072
24,YYSTPLARSRSP,0.831 ± 0.21

# Tested on: Saccharomyces cerevisiae
# Experiment: as above
# Conditions: genetic background: cdc34-1; temperature: 37 C
# Method: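 MPS profiling in S. cerevisiae of the tFT-X12 degron library: putative degron peptides plus stable controls, 12 aa, fused to the C-terminus of a sfGFP-mCherry timer. Cells are FACS-sorted into 8 mCherry/sfGFP bins and deep-sequenced. PSI runs from 0 (unstable) to 1 (stable). Backgrounds are wild type, das1Δ and doa10Δ at 30 °C, and wild type, das1Δ, cdc34-1 and cdc53-1 at 37 °C; 2-3 technical replicates each.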
row,Sequence,protein stability index
1,APLPPVCPSPSL,0.667 ± 0.081

# Same assay, conditions: genetic background: cdc53-1; temperature: 37 C
row,Sequence,protein stability index
1,APLPPVCPSPSL,0.72 ± 0.015

# Same assay, conditions: genetic background: das1 deletion; temperature: 30 C
row,Sequence,protein stability index
1,APLPPVCPSPSL,0.655 ± 0.0086

# Same assay, conditions: genetic background: das1 deletion; temperature: 37 C
row,Sequence,protein stability index
1,APLPPVCPSPSL,0.713 ± 0.019

# Same assay, conditions: genetic background: doa10 deletion; temperature: 30 C
row,Sequence,protein stability index
1,APLPPVCPSPSL,0.679 ± 0.052

# Same assay, conditions: genetic background: wild type; temperature: 30 C
row,Sequence,protein stability index
1,APLPPVCPSPSL,0.657 ± 0.018

# Same assay, conditions: genetic background: wild type; temperature: 37 C
row,Sequence,protein stability index
1,APLPPVCPSPSL,0.72 ± 0.01

# Reference: the supplement of paper PMC10724198
